This test addresses recombinant Myodes glareolus IFN-γ (recMgIFN-γ) (Myodes glareolus (bank vole)). In words: SEC; analytical gel filtration of 200 µl purified recMgIFN-γ in PBS at room temperature on a calibrated Superdex 75 10/300 GL column, flow rate 0.75 ml/min; detection at 230 and 260 nm. For orientation: SEC sorts molecules by how far they enter the pores of the column.

A word on the stoichiometry N: it is a count of units in the complex or per binding partner. Consider “recombinant Myodes glareolus IFN-γ (recMgIFN-γ) (natural protein)”, for which the stoichiometry N was 2.

For the origin of these results see PMC5809609.
